Measurements reported in article PMC9429925, “Tight Complex Formation of the Fumarate Sensing DcuS-DcuR Two-Component System at the Membrane and Target Promoter Search by Free DcuR Diffusion” (mSphere, 2022).
Where a chain is given by its changes, count along the chain named. Names and notes keep the numbering of the source.

B1: DcuS-T18 (natural protein, E. coli, UniProt P0AEC8 1-543, looked up)
chain: MRHSLPYRMLRKRPMKLSTTVILMVSAVLFSVLLVVHLIYFSQISDMTRDGLANKALAVARTLADSPEIRQGLQKKPQESGIQAIAEAVRKRNDLLFIVVTDMQSLRYSHPEAQRIGQPFKGDDILKALNGEENVAINRGFLAQALRVFTPIYDENHKQIGVVAIGLELSRVTQQINDSRWSIIWSVLFGMLVGLIGTCILVKVLKKILFGLEPYEISTLFEQRQAMLQSIKEGVVAVDDRGEVTLINDAAQELLNYRKSQDDEKLSTLSHSWSQVVDVSEVLRDGTPRRDEEITIKDRLLLINTVPVRSNGVIIGAISTFRDKTEVRKLMQRLDGLVNYADALRERSHEFMNKLHVILGLLHLKSYKQLEDYILKTANNYQEEIGSLLGKIKSPVIAGFLISKINRATDLGHTLILNSESQLPDSGSEDQVATLITTLGNLIENALEALGPEPGGEISVTLHYRHGWLHCEVNDDGPGIAPDKIDHIFDKGVSTKGSERGVGLALVKQQVENLGGSIAVESEPGIFTQFFVQIPWDGERSNR
notes: membrane-integral C4-dicarboxylate sensor kinase DcuS of E. coli, full length; also called full-length DcuS; DcuS-fusion; source: bacterial two-hybrid (BACTH) fusion in E. coli BTH101; not shown: T18 domain of Bordetella pertussis adenylate cyclase, C-terminal, kept
B2: DcuS(H349A)-T18 (natural protein, E. coli, UniProt P0AEC8 1-543, looked up)
chain: B1 chain with H349A
notes: E. coli DcuS, as pMW428 (full-length DcuS-T18) with the phosphorylation site His349 changed to Ala; source: bacterial two-hybrid (BACTH) fusion in E. coli BTH101; not shown: T18 domain of Bordetella pertussis adenylate cyclase, C-terminal, kept
B3: PASC-Kin(H349A)-T18 (domain or fragment, E. coli, UniProt P0AEC8 211-539, looked up)
chain: GLEPYEISTLFEQRQAMLQSIKEGVVAVDDRGEVTLINDAAQELLNYRKSQDDEKLSTLSHSWSQVVDVSEVLRDGTPRRDEEITIKDRLLLINTVPVRSNGVIIGAISTFRDKTEVRKLMQRLDGLVNYADALRERSAEFMNKLHVILGLLHLKSYKQLEDYILKTANNYQEEIGSLLGKIKSPVIAGFLISKINRATDLGHTLILNSESQLPDSGSEDQVATLITTLGNLIENALEALGPEPGGEISVTLHYRHGWLHCEVNDDGPGIAPDKIDHIFDKGVSTKGSERGVGLALVKQQVENLGGSIAVESEPGIFTQFFVQIPWDGE
notes: cytoplasmic part of E. coli DcuS, as pMW1076 [DcuS(211-539)] with H349A; source: bacterial two-hybrid (BACTH) fusion in E. coli BTH101; not shown: T18 domain of Bordetella pertussis adenylate cyclase, C-terminal, kept
B4: eYFP-L-DcuR (natural protein, E. coli, UniProt P0AD01 1-239, looked up)
chain: MINVLIIDDDAMVAELNRRYVAQIPGFQCCGTASTLEKAKEIIFNSDTPIDLILLDIYMQKENGLDLLPVLHNARCKSDVIVISSAADAATIKDSLHYGVVDYLIKPFQASRFEEALTGWRQKKMALEKHQYYDQAELDQLIHGSSSNEQDPRRLPKGLTPQTLRTLCQWIDAHQDYEFSTDELANEVNISRVSCRKYLIWLVNCHILFTSIHYGVTGRPVYRYRIQAEHYSLLKQYCQ
notes: response regulator DcuR of E. coli, joined genetically to eYFP by a short linker; unphosphorylated; The His6 tag is printed at the N-terminus and at the C-terminus in the same paragraph; also called eYfp-Linker-DcuR; His6-eYfp-Linker-DcuR; source: E. coli BL21(DE3), purified (Ni-NTA agarose)
B5: eYFP-L-DcuR-P (natural protein, E. coli, UniProt P0AD01 1-239, looked up)
chain: B4 chain
modifications: phosphorylated with carbamoyl phosphate; phosphorylation site Asp56 of DcuR
notes: response regulator DcuR of E. coli, joined genetically to eYFP by a short linker, phosphorylated with carbamoyl phosphate; also called eYFP-DcuR~P; source: E. coli BL21(DE3), purified (Ni-NTA agarose), then incubated with 50 mM carbamoyl phosphate
B6: phosphorylated PASC-Kin (PASC-Kin-P) (domain or fragment, E. coli, UniProt P0AEC8 212-539, looked up)
chain: LEPYEISTLFEQRQAMLQSIKEGVVAVDDRGEVTLINDAAQELLNYRKSQDDEKLSTLSHSWSQVVDVSEVLRDGTPRRDEEITIKDRLLLINTVPVRSNGVIIGAISTFRDKTEVRKLMQRLDGLVNYADALRERSHEFMNKLHVILGLLHLKSYKQLEDYILKTANNYQEEIGSLLGKIKSPVIAGFLISKINRATDLGHTLILNSESQLPDSGSEDQVATLITTLGNLIENALEALGPEPGGEISVTLHYRHGWLHCEVNDDGPGIAPDKIDHIFDKGVSTKGSERGVGLALVKQQVENLGGSIAVESEPGIFTQFFVQIPWDGE
modifications: phosphorylated by autophosphorylation with ATP; phosphorylation site His349
notes: cytoplasmic part of E. coli DcuS, residues 212-539, autophosphorylated with ATP; source: E. coli BL21(DE3), purified (Ni-NTA agarose), then incubated with 1 mM ATP; not shown: His6, N-terminal, kept
B7: His6-PASc-Kin (DcuS [AS 212-539]) (domain or fragment, E. coli, UniProt P0AEC8 212-539, looked up)
chain: B6 chain
notes: cytoplasmic part of E. coli DcuS (Linker, PASC and kinase domains), residues 212-539; unphosphorylated; pET28a derivative; homodimer by SEC (Mr 84 kDa, monomer 40.4 kDa); also called His6-PASc-Kinase; 6His-PASc-Kinase; source: E. coli BL21(DE3), purified (Ni-NTA agarose); not shown: His6, N-terminal, kept

Assays:
T25-DcuR(D56N) = target: T1, T25-DcuR(D56N) (E. coli, UniProt P0AD01 1-239, D56N); test: two-hybrid; bacterial two-hybrid BACTH in E. coli BTH101 (ΔcyaA); T25 N-terminally on DcuR, T18 C-terminally on DcuS or PASC-Kin; β-galactosidase activity in Miller units; wild-type pair also with fumarate; conditions: partners not purified
T1 construct: E. coli DcuR, as pMW427 (T25-DcuR) with the phosphorylation site Asp56 changed to Asn; source: bacterial two-hybrid (BACTH) fusion in E. coli BTH101; not shown: T25 domain of Bordetella pertussis adenylate cyclase, N-terminal, kept
T1 sequence (looked up): B4 chain with D56N

T25-DcuR = target: T2, T25-DcuR (E. coli, UniProt P0AD01 1-239); test: as above; conditions: partners not purified
T2 construct: response regulator DcuR of E. coli (REC and HTH domains); also called DcuR-fusion; source: bacterial two-hybrid (BACTH) fusion in E. coli BTH101; not shown: T25 domain of Bordetella pertussis adenylate cyclase, N-terminal, kept
T2 sequence (looked up): B4 chain

[1] = target: B7; test: MST; eYFP-L-DcuR at 0.1 μM, His6-PASC-Kin titrated from 10^-1 to 2 x 10^4 nM; Tris/HCl pH 7.7, 10 mM MgCl2, 2 mM DTT; 25°C; Monolith NT.115; 1:1 binding model; Kd refers to monomer concentrations; conditions: both partners purified
[2] = target: B6; test: as above; conditions: both partners purified
His6-DcuR = target: T3, His6-DcuR (E. coli, UniProt P0AD01 1-239); test: SEC; mixtures of PASC-Kin and DcuR (phosphate-free or phosphorylated), molar ratios 1:1.44, 1:2, 1:1.4 with PASC-Kin at 40.4 μM (also 1:0.2, 1:5, 1:10 for PASC-Kin-P and DcuR); HiLoad 16/600 Sephadex 200; peak fractions analysed by SDS-PAGE and quantified with ImageJ; conditions: both partners purified
T3 construct: response regulator DcuR of E. coli; unphosphorylated; also called DcuR-6His; source: E. coli BL21(DE3), purified (Ni-NTA agarose)
T3 sequence (looked up): B4 chain

[3] = target: the molecule itself; test: as above
[4] = target: the molecule itself; test: SEC; each protein alone on HiLoad 16/600 Sephadex 200; His6-PASc-Kinase 45 μM, DcuR 55 μM; 50 mM Tris-HCl, 1 mM DTT, 50 mM KCl, 5 mM MgCl2, pH 7.7, 25°C; Mr by calibration with protein standards

## B1
T25-DcuR(D56N)
  % of wild-type BACTH activity: 94%

## B2
T25-DcuR
  % of wild-type BACTH activity: 94%

## B3
T25-DcuR
  % of wild-type BACTH activity: 108%

## B4
[1]
  Kd: 1380 nM
[2]
  Kd: 22 nM

## B5
[1]
  Kd: 28 nM

## B6
His6-DcuR
  stoichiometry N: 0.86 mol DcuR/mol PASC-Kin
[3]
  binding result: binds

## B7
[4]
  stoichiometry N: 2
